In paper PMC4390882 (Life, 2015):
Positions count from the first letter of the chain named. Names may count otherwise. One block for each molecule: values may come before it.

Legend:
[1] = biological target: T1, MtACK (Methanosarcina thermophila acetate kinase) (Methanosarcina thermophila, UniProt P38502, G331Q); test: hydroxamate assay, A540; format: biochemical; settings: acetate not saturating (max 1 M), MgCl2, 50 mM Tris pH 7.5, 300 mM hydroxylamine, 37 °C
T1 construct: gene ackA; full-length, N-terminal His6 tag (pET15b, pETack), expressed in E. coli BL21(DE3), HisTrap purified; tag removal not mentioned

[2] = biological target: T2, MtACK (Methanosarcina thermophila acetate kinase) (Methanosarcina thermophila, UniProt P38502, N211A); test: hydroxamate assay, A540; format: biochemical; settings: saturating acetate when possible (max 1 M), MgCl2, 50 mM Tris pH 7.5, 300 mM hydroxylamine, 37 °C
T2 construct: gene ackA; full-length, N-terminal His6 tag (pET15b, pETack), expressed in E. coli BL21(DE3), HisTrap purified; tag removal not mentioned

[3] = biological target: T3, MtACK (Methanosarcina thermophila acetate kinase) (Methanosarcina thermophila, UniProt P38502, G239S); test: hydroxamate assay, A540; format: biochemical; settings: saturating acetate when possible (max 1 M), MgCl2, 50 mM Tris pH 7.5, 300 mM hydroxylamine, 37 °C
T3 construct: gene ackA; full-length, N-terminal His6 tag (pET15b, pETack), expressed in E. coli BL21(DE3), HisTrap purified; tag removal not mentioned

[4] = biological target: T4, MtACK (Methanosarcina thermophila acetate kinase) (Methanosarcina thermophila, UniProt P38502, G331A); test: hydroxamate assay, A540; format: biochemical; settings: saturating acetate when possible (max 1 M), MgCl2, 50 mM Tris pH 7.5, 300 mM hydroxylamine, 37 °C
T4 construct: gene ackA; full-length, N-terminal His6 tag (pET15b, pETack), expressed in E. coli BL21(DE3), HisTrap purified; tag removal not mentioned

[5] = biological target: T5, MtACK (Methanosarcina thermophila acetate kinase) (Methanosarcina thermophila, UniProt P38502, N211T); test: hydroxamate assay, A540; format: biochemical; settings: saturating acetate when possible (max 1 M), MgCl2, 50 mM Tris pH 7.5, 300 mM hydroxylamine, 37 °C
T5 construct: gene ackA; full-length, N-terminal His6 tag (pET15b, pETack), expressed in E. coli BL21(DE3), HisTrap purified; tag removal not mentioned

[6] = biological target: T6, MtACK (Methanosarcina thermophila acetate kinase) (Methanosarcina thermophila, UniProt P38502, G239A); test: hydroxamate assay, A540; format: biochemical; settings: saturating acetate when possible (max 1 M), MgCl2, 50 mM Tris pH 7.5, 300 mM hydroxylamine, 37 °C
T6 construct: gene ackA; full-length, N-terminal His6 tag (pET15b, pETack), expressed in E. coli BL21(DE3), HisTrap purified; tag removal not mentioned

[7] = biological target: T7, MtACK (Methanosarcina thermophila acetate kinase) (Methanosarcina thermophila, UniProt P38502, N211S); test: hydroxamate assay, A540; format: biochemical; settings: saturating acetate when possible (max 1 M), MgCl2, 50 mM Tris pH 7.5, 300 mM hydroxylamine, 37 °C
T7 construct: gene ackA; full-length, N-terminal His6 tag (pET15b, pETack), expressed in E. coli BL21(DE3), HisTrap purified; tag removal not mentioned

[8] = biological target: T8, MtACK (Methanosarcina thermophila acetate kinase) (Methanosarcina thermophila, UniProt P38502); test: hydroxamate assay, A540; format: biochemical; settings: saturating acetate when possible (max 1 M), MgCl2, 50 mM Tris pH 7.5, 300 mM hydroxylamine, 37 °C
T8 construct: gene ackA; full-length, N-terminal His6 tag (pET15b, pETack), expressed in E. coli BL21(DE3), HisTrap purified; tag removal not mentioned

hydroxamate assay, A540 [9] = substrate: Nc1ccn([C@@H]2O[C@H](COP(=O)(O)OP(=O)(O)OP(=O)(O)O)[C@@H](O)[C@H]2O)c(=O)n1; test: hydroxamate assay, A540; format: biochemical, Methanosarcina thermophila; settings: saturating acetate when possible (max 1 M), MgCl2, 50 mM Tris pH 7.5, 300 mM hydroxylamine, 37 °C
hydroxamate assay, A540 [10] = substrate: Nc1nc2c(ncn2[C@@H]2O[C@H](COP(=O)(O)OP(=O)(O)OP(=O)(O)O)[C@@H](O)[C@H]2O)c(=O)[nH]1; test: hydroxamate assay, A540; format: biochemical, Methanosarcina thermophila; settings: saturating acetate when possible (max 1 M), MgCl2, 50 mM Tris pH 7.5, 300 mM hydroxylamine, 37 °C
hydroxamate assay, A540 [11] = substrate: Cc1cn([C@H]2C[C@H](O)[C@@H](COP(=O)(O)OP(=O)(O)OP(=O)(O)O)O2)c(=O)[nH]c1=O; test: hydroxamate assay, A540; format: biochemical, Methanosarcina thermophila; settings: saturating acetate when possible (max 1 M), MgCl2, 50 mM Tris pH 7.5, 300 mM hydroxylamine, 37 °C
hydroxamate assay, A540 [12] = substrate: O=P(O)(O)OP(=O)(O)OP(=O)(O)OC[C@H]1O[C@@H](n2cnc3c(O)ncnc32)[C@H](O)[C@@H]1O; test: hydroxamate assay, A540; format: biochemical, Methanosarcina thermophila; settings: saturating acetate when possible (max 1 M), MgCl2, 50 mM Tris pH 7.5, 300 mM hydroxylamine, 37 °C
hydroxamate assay, A540 [13] = substrate: O=c1ccn([C@@H]2O[C@H](COP(=O)(O)OP(=O)(O)OP(=O)(O)O)[C@@H](O)[C@H]2O)c(=O)[nH]1; test: hydroxamate assay, A540; format: biochemical, Methanosarcina thermophila; settings: saturating acetate when possible (max 1 M), MgCl2, 50 mM Tris pH 7.5, 300 mM hydroxylamine, 37 °C
purified protein = substrate: CC(=O)O; test: purified protein; settings: ATP constant at optimal concentration, MgCl2, 50 mM Tris pH 7.5, 300 mM hydroxylamine, 37 °C

T1 sequence (P38502 whole entry G331Q): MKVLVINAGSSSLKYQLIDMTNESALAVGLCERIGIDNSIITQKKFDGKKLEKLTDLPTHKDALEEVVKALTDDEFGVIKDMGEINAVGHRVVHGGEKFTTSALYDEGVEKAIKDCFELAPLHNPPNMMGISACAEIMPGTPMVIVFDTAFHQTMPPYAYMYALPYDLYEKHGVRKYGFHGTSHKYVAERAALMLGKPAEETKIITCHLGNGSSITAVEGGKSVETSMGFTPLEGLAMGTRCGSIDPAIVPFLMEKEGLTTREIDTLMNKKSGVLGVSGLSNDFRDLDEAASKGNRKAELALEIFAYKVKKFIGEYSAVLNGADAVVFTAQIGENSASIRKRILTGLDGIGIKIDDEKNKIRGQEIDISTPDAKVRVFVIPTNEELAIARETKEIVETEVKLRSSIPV
T8 sequence (P38502 whole entry): as the sequence (P38502 whole entry G331Q) above, with Q331G counted along it
T6 sequence (P38502 whole entry G239A): as the sequence (P38502 whole entry G331Q) above, with G239A, Q331G counted along it
T5 sequence (P38502 whole entry N211T): as the sequence (P38502 whole entry G331Q) above, with N211T, Q331G counted along it
T3 sequence (P38502 whole entry G239S): as the sequence (P38502 whole entry G331Q) above, with G239S, Q331G counted along it
T7 sequence (P38502 whole entry N211S): as the sequence (P38502 whole entry G331Q) above, with N211S, Q331G counted along it
T2 sequence (P38502 whole entry N211A): as the sequence (P38502 whole entry G331Q) above, with N211A, Q331G counted along it

- Km [1]: 18.4 ± 0.6 mM
- Km [2]: 5.9 ± 0.5 mM
- Km [3]: 1.8 ± 0.1 mM
- Km [4]: 10.2 ± 0.4 mM
- Km [5]: 7.1 ± 0.3 mM
- Km [6]: 1.7 ± 0.1 mM
- Km [7]: 6.8 ± 0.6 mM
- Km [8]: 4 ± 0.3 mM
Molecule: Nc1ncnc2c1ncn2[C@@H]1O[C@H](COP(=O)(O)OP(=O)(O)OP(=O)(O)O)[C@@H](O)[C@H]1O [ATP]

B1: MtACK (Methanosarcina thermophila acetate kinase) (Methanosarcina thermophila; G331A) (protein)
chain: MKVLVINAGSSSLKYQLIDMTNESALAVGLCERIGIDNSIITQKKFDGKKLEKLTDLPTHKDALEEVVKALTDDEFGVIKDMGEINAVGHRVVHGGEKFTTSALYDEGVEKAIKDCFELAPLHNPPNMMGISACAEIMPGTPMVIVFDTAFHQTMPPYAYMYALPYDLYEKHGVRKYGFHGTSHKYVAERAALMLGKPAEETKIITCHLGNGSSITAVEGGKSVETSMGFTPLEGLAMGTRCGSIDPAIVPFLMEKEGLTTREIDTLMNKKSGVLGVSGLSNDFRDLDEAASKGNRKAELALEIFAYKVKKFIGEYSAVLNGADAVVFTAAIGENSASIRKRILTGLDGIGIKIDDEKNKIRGQEIDISTPDAKVRVFVIPTNEELAIARETKEIVETEVKLRSSIPV
notes: full-length, N-terminal His6 tag (pET15b, pETack), expressed in E. coli BL21(DE3), HisTrap purified; tag removal not mentioned
- Km (hydroxamate assay, A540 [9]): 15.7 ± 1.6 mM
- kcat (hydroxamate assay, A540 [9]): 17 ± 0.8 s⁻¹
- kcat/Km (hydroxamate assay, A540 [9]): 1100 ± 70 M⁻¹ s⁻¹
- Km (hydroxamate assay, A540 [10]): 5.3 ± 0.2 mM
- kcat (hydroxamate assay, A540 [10]): 67 ± 1.0 s⁻¹
- kcat/Km (hydroxamate assay, A540 [10]): 12600 ± 400 M⁻¹ s⁻¹

B2: MtACK (Methanosarcina thermophila acetate kinase) (Methanosarcina thermophila) (protein)
chain: B1 chain with A331G
notes: as for B1
- Km (hydroxamate assay, A540 [9]): 3.2 ± 0.4 mM
- kcat (hydroxamate assay, A540 [9]): 460 ± 28 s⁻¹
- kcat/Km (hydroxamate assay, A540 [9]): 148000 ± 13000 M⁻¹ s⁻¹
- Km (hydroxamate assay, A540 [11]): 2.7 ± 0.1 mM
- kcat (hydroxamate assay, A540 [11]): 540 ± 9 s⁻¹
- kcat/Km (hydroxamate assay, A540 [11]): 202000 ± 2000 M⁻¹ s⁻¹
- Km (hydroxamate assay, A540 [12]): 4.7 ± 0.2 mM
- kcat (hydroxamate assay, A540 [12]): 742 ± 10 s⁻¹
- kcat/Km (hydroxamate assay, A540 [12]): 158000 ± 5000 M⁻¹ s⁻¹
- Km (hydroxamate assay, A540 [13]): 2.7 ± 0.3 mM
- kcat (hydroxamate assay, A540 [13]): 415 ± 19 s⁻¹
- kcat/Km (hydroxamate assay, A540 [13]): 152000 ± 7000 M⁻¹ s⁻¹
- Km (hydroxamate assay, A540 [10]): 7.2 ± 0.9 mM
- kcat (hydroxamate assay, A540 [10]): 571 ± 22 s⁻¹
- kcat/Km (hydroxamate assay, A540 [10]): 80000 ± 7000 M⁻¹ s⁻¹
- Km (purified protein): 14.3 ± 0.5 mM
